Assays:
Cyno TL1A (cyno) [1] = target: Cyno TL1A (cyno) (UniProt G7PRK8); experiment: SPR, mAb format, average
human TL1A (human) [2] = target: human TL1A (human) (UniProt O95150); experiment: SPR, mAb format, average
mouse TL1A (mouse) = mouse TL1A (mouse) (UniProt Q5UBV8); experiment: SPR, mAb format, average
Cyno TL1A (cyno) [3] = target: Cyno TL1A (cyno) (UniProt G7PRK8); experiment: SPR, representative sensorgram with Cyno TL1A
human TL1A (human) [4] = target: human TL1A (human) (UniProt O95150); experiment: SPR, representative sensorgram with Human TL1A
human TL1A (human) [5] = target: human TL1A (human) (UniProt O95150); experiment: selectivity ELISA: antibody pre-incubated with TL1A, inhibition of TL1A binding to plate-coated DR3
human TL1A (human) [6] = target: human TL1A (human) (UniProt O95150); experiment: selectivity ELISA: antibody pre-incubated with TL1A, inhibition of TL1A binding to plate-coated DcR3

Sequence of human TL1A (human) (O95150 72-251 limits assumed): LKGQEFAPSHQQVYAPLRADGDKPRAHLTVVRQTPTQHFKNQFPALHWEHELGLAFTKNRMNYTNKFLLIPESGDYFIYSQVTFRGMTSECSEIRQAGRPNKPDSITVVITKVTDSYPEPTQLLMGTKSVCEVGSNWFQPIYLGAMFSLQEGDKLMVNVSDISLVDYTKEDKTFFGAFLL
Sequence of Cyno TL1A (cyno) (G7PRK8 entry or part of it): as the sequence (O95150 72-251 limits assumed) above, with F39L, I78V counted along it
Sequence of mouse TL1A (mouse) (Q5UBV8 76-252 V180M/M218T limits assumed): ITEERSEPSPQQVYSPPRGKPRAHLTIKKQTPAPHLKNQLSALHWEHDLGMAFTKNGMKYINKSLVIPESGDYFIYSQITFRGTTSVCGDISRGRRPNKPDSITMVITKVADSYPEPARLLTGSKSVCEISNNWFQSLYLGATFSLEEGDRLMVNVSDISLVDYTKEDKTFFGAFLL

- Kd (Cyno TL1A (cyno) [1]): 0.09 nM
- Kd (human TL1A (human) [2]): 0.365 nM
- Kd (mouse TL1A (mouse)): 81900 nM
- Kd (Cyno TL1A (cyno) [3]): 0.114 nM
- Kd (human TL1A (human) [4]): 0.339 nM
- IC50 (human TL1A (human) [5]): 6.3 µg/mL
- IC50 (human TL1A (human) [6]): 3.6 µg/mL
B1: Heron2B (antibody, INN chains, looked up, V domains shown)
VH: QVQLVQSGAEVKKPGASVKVSCKASGFDIQDTYMHWVKQRPGQGLEWMGRIDPASGHTKYDPKFQVRVTITRDTSTSTVYLELSSLRSEDTAVYYCARSGGLPDVWGQGTTVTVSS
VL: EIVLTQSPGTLSLSPGERATLSCRASSSVSYMYWYQQKPGQAPRPLIYATSNLASGIPDRFSGSGSGTDFTLTISRLEPEDFAVYYCQQWEGNPRTFGGGTKLEIK

Source: patent US20250109209A1
